How the values were obtained:
Conditions in all cases: 20 nM; 72 h
MCF10A [1] = assay: one-nucleolus phenotype percent effect (relative to siNT 0% and siNOL11 100%); higher = more cells with one nucleolus (ribosome biogenesis inhibition)
Description: (§1)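 After 72 h, cells were fixed and stained with Hoechst and anti-fibrillarin, and nucleoli per nucleus were counted with CellProfiler. Values are plate-adjusted percent effect for the one-nucleolus and 5+ nucleoli phenotypes, normalised to siNT (0%) and to the positive controls siNOL11 or siKIF11 (100%), as the mean of biological triplicates. Percent viability is the nuclei count relative to siNT.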

MCF10A [2] = assay: percent viability (nuclei count relative to siNT); higher = more viable cells
Description: as §1

MCF10A [3] = assay: 5+ nucleoli phenotype percent effect (relative to siNT 0% and siKIF11 100%); higher = more cells with five or more nucleoli
Description: as §1

Sequence | one-nucleolus phenotype percent effect (MCF10A [1]) [%] | percent viability (MCF10A [2]) [%] | 5+ nucleoli phenotype percent effect (MCF10A [3]) [%]
CCAAAUCUUGAUCAGAAGCCU [hsa-miR-4762-5p] | -8.43 | 106 | 26.6
CCAACCUAGGUGGUCAGAGUUG [hsa-miR-4714-3p] | -11.1 | 98.3 | 42
CCAAGGAAGGAGGCUGGACAUC [hsa-miR-6830-5p] | 13.3 | 47.1 | -10.3
CCAAUAUUACUGUGCUGCUUUA [hsa-miR-16-2-3p] | -17.8 | 121 | 40.6
CCAAUAUUGGCUGUGCUGCUCC [hsa-miR-195-3p] | -16.1 | 142 | 27.5
CCAAUUACCACUUCUUU [hsa-miR-4275] | -17.6 | 74.6 | 23.8
CCACCAGGUCUAGCAUUGGGAU [hsa-miR-4733-3p] | 12.6 | 29.8 | -9.32
CCACCGGGGGAUGAAUGUCAC [hsa-miR-181d-3p] | 24.4 | 40.6 | -15.9
CCACCUCCCCUGCAAACGUCCA [hsa-miR-1306-5p] | -25.8 | 35 | 33
CCACGUGCUUCUCUUUCCGCAG [hsa-miR-6767-3p] | 13.2 | 69 | -26
CCACUGCCUAUGCCCCACAG [hsa-miR-6890-3p] | -16.6 | 62.1 | -13.4
CCACUUGGAUCUGAAGGCUGCCC [hsa-miR-3614-5p] | 36.9 | 32.9 | -32.4
CCAGACAGAAUUCUAUGCACUUUC [hsa-miR-1324] | -11 | 120 | 49.8
CCAGACUGUGGCUGACCAGAGG [hsa-miR-4494] | -29.5 | 96.4 | 52.3
CCAGAGAUGGUUGCCUUCCUAU [hsa-miR-4756-3p] | -3.67 | 56.8 | 4.75
CCAGAGCAGCCUGCGGUAACAGU [hsa-miR-6501-3p] | 1.17 | 35.1 | -17.2
CCAGAGGUGGGGACUGAG [hsa-miR-4257] | 22.3 | 24.6 | 1.69
CCAGCCACGGACUGAGAGUGCAU [hsa-miR-4691-3p] | -11.4 | 51.4 | 26.3
CCAGGAGAUCCAGAGAGAAU [hsa-miR-4768-3p] | 0.373 | 32.6 | 1.69
CCAGGAGGCGGAGGAGGUGGAG [hsa-miR-4459] | 9.39 | 64.6 | -0.862
CCAGGCUCUGCAGUGGGA [hsa-miR-3155b] | -8.6 | 65.5 | 29.5
CCAGGCUCUGCAGUGGGAACU [hsa-miR-3155a] | -2.13 | 32.5 | 30.4
CCAGGGAGGCUGGUUUGGAGGA [hsa-miR-6754-5p] | 22.6 | 38 | -21.9
CCAGGGGGAUGGGCGAGCUUGGG [hsa-miR-6798-5p] | -16.7 | 77.9 | 13.9

Reference: the supplement of paper PMC10899765
